Measured values: publication doi:10.1101/547208, “A single dose of antibody-1 drug conjugate cures a stage model of African trypanosomiasis” (bioRxiv, 2019)
Residue numbers refer to the chain shown, from its start.

B1: Tb017 scFv (scFv, V domains shown)
VH: QVQLVQSGAEVKKPGSSVKVSCKASGGTFSSYAISWVRQAPGQGLEWMGGIIPIFGTANYAQKFQGRVTITADESTSTAYMELSSLRSEDTAVYYCARGWWYDLVFDYWGQGTLVTVSS
VL: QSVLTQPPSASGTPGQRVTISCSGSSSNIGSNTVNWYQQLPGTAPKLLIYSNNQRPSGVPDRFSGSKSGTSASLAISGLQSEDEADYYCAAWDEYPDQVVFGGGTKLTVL
notes: The name Tb017 is printed for the IgG1 and its conjugate; source: phage produced from E. coli, phage-containing supernatant
B2: Tb073 scFv (scFv, V domains shown)
VH: B1 VH with W101Y, Y102D, D103M, L104G, V105D, Y108M
VL: QSVLTQPPSASGTPGQRVTISCSGSSSNIGSNTVNWYQQLPGTAPKLLIYSNNQRPSGVPDRFSGSKSGTSASLAISGLQSEDEADYYCAAWDWHHGHVVVFGGGTKLTVL
notes: The name Tb073 is printed for the IgG1 and its conjugate; source: phage produced from E. coli, phage-containing supernatant
B3: Tb086 scFv (scFv, V domains shown)
VH: B1 VH with W101Y, D103H, L104G, V105G, F106I
VL: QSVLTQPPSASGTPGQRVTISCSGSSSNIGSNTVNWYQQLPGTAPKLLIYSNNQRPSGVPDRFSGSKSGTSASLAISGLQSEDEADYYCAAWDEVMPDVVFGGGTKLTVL
notes: The name Tb086 is printed for the IgG1; source: phage produced from E. coli, phage-containing supernatant
B4: Tb078 scFv (scFv, V domains shown)
VH: B1 VH with W101I, D103E, L104F, V105I, F106I, Y108A
VL: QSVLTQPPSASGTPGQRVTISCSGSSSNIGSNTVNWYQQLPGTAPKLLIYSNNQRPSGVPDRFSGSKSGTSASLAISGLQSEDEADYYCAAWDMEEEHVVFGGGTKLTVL
notes: The name Tb078 is printed for the IgG1 and its conjugate; source: phage produced from E. coli, phage-containing supernatant
B5: Tb085 scFv (scFv, V domains shown)
VH: B1 VH with G99E, W100G, Y102D, D103Y, L104G, V105W, Y108F
VL: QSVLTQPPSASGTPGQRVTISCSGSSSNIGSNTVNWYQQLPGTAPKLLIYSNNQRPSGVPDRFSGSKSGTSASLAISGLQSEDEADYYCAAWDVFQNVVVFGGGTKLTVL
notes: The name Tb085 is printed for the IgG1 and its conjugates; source: phage produced from E. coli, phage-containing supernatant
B6: Tb074 scFv (scFv, V domains shown)
VH: B1 VH with Y102H, D103E, L104P, V105G
VL: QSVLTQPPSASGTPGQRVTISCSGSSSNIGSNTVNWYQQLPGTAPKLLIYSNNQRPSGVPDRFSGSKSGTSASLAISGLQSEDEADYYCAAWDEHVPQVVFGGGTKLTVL
notes: The name Tb074 is printed for the IgG1 and its conjugates; source: phage produced from E. coli, phage-containing supernatant

Each binder was assayed against T1, Recombinant HpHbR N-terminal domain (Trypanosoma brucei brucei (strain not …, biotin (biotinylated form on streptavidin-coated plates; a non-biotinylated form was coated on Maxisorp plates)) (assay: ELISA; phage ELISA: 10 ug/ml HpHbR NTD coated on Nunc Maxisorp plates or 5 ug/mL biotinylated NTD on streptavidin-coated plates overnight at 4°C; blocked phage supernatants 1 hr at room temperature; bound phage detected with anti-M13 HRP antibody; BSA and streptavidin in parallel). Details: one partner purified.
T1 construct: also called HpHbR NTD; TbHpHbR NTD; source: recombinant, expressed as previously described (34)

Row | Binder | binding result
1 | B1 | binds
2 | B2 | binds
3 | B3 | binds
4 | B4 | binds
5 | B5 | binds
6 | B6 | binds
